Columns and labels:
Assay in all cases: two-hybrid
[1] = target: λCI_Arnt362 C308R (human, UniProt P27540 1-362, C308R)
[2] = target: λCI_Arnt362 G341D (human, UniProt P27540 1-362, G341D)
[3] = target: λCI_Arnt362 M267K (human, UniProt P27540 1-362, M267K)
[4] = target: λCI_Arnt362 A339D (human, UniProt P27540 1-362, A339D)
[5] = target: λCI_Arnt362 V306D (human, UniProt P27540 1-362, V306D)
[6] = target: λCI_Arnt362 L221H (human, UniProt P27540 1-362, L221H)
[7] = target: λCI_Arnt362 C265R (human, UniProt P27540 1-362, C265R)

Measured: β-gal activity relative to wt

λCI_Arnt362 M267K, sequence (P27540 1-362 M267K): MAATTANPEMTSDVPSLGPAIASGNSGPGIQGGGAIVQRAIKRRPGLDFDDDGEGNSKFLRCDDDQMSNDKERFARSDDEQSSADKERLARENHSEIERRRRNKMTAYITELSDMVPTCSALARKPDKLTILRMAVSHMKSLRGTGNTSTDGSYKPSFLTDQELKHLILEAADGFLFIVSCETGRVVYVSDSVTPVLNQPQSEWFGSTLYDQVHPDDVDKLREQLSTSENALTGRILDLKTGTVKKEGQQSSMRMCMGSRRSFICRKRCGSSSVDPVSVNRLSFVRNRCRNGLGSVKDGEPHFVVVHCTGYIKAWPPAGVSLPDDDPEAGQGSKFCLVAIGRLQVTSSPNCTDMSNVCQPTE
λCI_Arnt362 A339D, sequence (P27540 1-362 A339D): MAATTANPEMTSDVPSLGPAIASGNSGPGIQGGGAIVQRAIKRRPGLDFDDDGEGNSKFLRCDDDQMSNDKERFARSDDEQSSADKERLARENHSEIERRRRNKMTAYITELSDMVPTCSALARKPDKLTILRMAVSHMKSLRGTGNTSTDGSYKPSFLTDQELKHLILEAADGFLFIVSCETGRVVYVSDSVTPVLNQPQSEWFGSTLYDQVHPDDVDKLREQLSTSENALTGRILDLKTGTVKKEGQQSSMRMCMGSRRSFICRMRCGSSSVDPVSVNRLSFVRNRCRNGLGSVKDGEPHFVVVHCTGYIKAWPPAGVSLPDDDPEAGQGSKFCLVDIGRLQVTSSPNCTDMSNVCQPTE
λCI_Arnt362 L221H, sequence (P27540 1-362 L221H): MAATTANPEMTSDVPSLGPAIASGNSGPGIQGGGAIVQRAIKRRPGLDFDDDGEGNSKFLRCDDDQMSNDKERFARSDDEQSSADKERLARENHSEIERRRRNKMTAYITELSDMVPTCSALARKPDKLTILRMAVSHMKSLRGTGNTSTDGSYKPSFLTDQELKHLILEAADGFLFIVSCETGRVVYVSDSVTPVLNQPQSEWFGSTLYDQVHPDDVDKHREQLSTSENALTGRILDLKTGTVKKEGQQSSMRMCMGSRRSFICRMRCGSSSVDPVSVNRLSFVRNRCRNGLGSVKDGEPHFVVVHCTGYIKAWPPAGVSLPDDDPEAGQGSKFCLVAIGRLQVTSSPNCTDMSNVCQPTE
λCI_Arnt362 V306D, sequence (P27540 1-362 V306D): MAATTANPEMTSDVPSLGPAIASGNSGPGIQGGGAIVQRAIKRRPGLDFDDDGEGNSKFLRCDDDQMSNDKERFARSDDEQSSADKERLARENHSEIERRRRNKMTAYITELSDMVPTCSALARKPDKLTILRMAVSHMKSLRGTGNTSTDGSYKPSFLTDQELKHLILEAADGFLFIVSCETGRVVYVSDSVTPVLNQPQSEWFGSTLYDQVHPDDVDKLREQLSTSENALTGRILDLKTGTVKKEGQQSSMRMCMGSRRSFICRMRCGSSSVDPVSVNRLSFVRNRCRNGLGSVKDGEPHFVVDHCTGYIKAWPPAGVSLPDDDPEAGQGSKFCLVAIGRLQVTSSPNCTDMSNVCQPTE
λCI_Arnt362 G341D, sequence (P27540 1-362 G341D): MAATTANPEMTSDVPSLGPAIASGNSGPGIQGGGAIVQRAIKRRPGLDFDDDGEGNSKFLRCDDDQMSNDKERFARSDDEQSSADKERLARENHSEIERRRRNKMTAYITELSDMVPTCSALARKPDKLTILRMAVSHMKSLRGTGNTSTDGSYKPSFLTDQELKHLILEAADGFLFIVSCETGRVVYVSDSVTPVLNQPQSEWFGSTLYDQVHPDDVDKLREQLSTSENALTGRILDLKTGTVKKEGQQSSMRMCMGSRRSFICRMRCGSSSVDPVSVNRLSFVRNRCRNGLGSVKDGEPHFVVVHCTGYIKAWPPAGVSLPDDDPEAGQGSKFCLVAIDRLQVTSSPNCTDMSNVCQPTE
λCI_Arnt362 C265R, sequence (P27540 1-362 C265R): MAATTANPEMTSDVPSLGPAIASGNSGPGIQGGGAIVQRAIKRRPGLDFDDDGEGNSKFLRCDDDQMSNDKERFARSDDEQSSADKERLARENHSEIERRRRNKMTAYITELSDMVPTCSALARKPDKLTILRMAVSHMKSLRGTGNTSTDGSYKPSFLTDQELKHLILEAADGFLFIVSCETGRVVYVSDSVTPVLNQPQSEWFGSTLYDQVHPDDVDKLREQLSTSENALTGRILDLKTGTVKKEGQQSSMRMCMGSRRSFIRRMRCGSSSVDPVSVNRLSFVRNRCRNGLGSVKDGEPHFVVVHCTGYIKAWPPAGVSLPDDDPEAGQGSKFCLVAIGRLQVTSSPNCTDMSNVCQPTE
λCI_Arnt362 C308R, sequence (P27540 1-362 C308R): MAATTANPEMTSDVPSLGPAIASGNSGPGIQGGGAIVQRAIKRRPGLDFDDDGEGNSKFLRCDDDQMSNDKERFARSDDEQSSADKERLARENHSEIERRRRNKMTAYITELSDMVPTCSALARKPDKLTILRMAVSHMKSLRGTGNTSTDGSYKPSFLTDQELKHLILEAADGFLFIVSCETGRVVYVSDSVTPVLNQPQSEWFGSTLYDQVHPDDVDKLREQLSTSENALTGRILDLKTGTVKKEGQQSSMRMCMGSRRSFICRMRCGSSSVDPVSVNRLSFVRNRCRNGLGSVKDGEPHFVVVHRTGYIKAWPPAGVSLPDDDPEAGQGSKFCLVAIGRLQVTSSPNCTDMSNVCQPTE

B1: RNAPα_AhR278 (domain or fragment, mouse, UniProt P30561 1-278, looked up)
chain: MSSGANITYASRKRRKPVQKTVKPIPAEGIKSNPSKRHRDRLNTELDRLASLLPFPQDVINKLDKLSVLRLSVSYLRAKSFFDVALKSTPADRNGGQDQCRAQIRDWQDLQEGEFLLQALNGFVLVVTADALVFYASSTIQDYLGFQQSDVIHQSVYELIHTEDRAEFQRQLHWALNPDSAQGVDEAHGPPQAAVYYTPDQLPPENASFMERCFRCRLRCLLDNSSGFLAMNFQGRLKYLHGQNKKGKDGALLPPQLALFAIATPLQPPSILEIRTKN
47 % of wt activity: [2]
< 60 % of wt β-gal activity: all other assays above

— PMC3089468 (Nucleic Acids Research, 2011)
